The text below walks through data of publication PMC10901556, “Conservation of Affinity Rather Than Sequence Underlies a Dynamic Evolution of the Motif-Mediated p53/MDM2 Interaction in Ray-Finned Fishes” (Molecular Biology and Evolution, 2024).

The labels stand for the following.
B3: MDM2_(D.rerio) SWIB domain (domain or fragment)
chain: SQISKVDNEKLVRPKVQLKSLLEDAGADKDVFTMKEVMFYLGKYIMSKELYDKQQQHIVHCGEDPLGAVLGVKSFSVKEPRALFALINRNLVT

Where no end group is shown, it is not given here.

Assay in all cases: fluorescence polarisation; displacement: complex of MDM2 (0.2-2 μM) and FITC-p53TAD_(human)^15–26 (15 nM) displaced by increasing unlabeled p53TAD peptide or p53TAD^full-length; KD calculated from IC50 (Nikolovska-Coleska et al. 2004); 20 mM sodium phosphate pH 7.4, 150 mM NaCl, 1 mM TCEP
Conditions in all cases: both partners purified

For test [1], the target named is T1, MDM2 SWIB domain from Takifugu rubripes (Japanese puffer) (Takifugu rubripes (Japanese puffer)).
T1 construct: MDM2 SWIB domain, Takifugu rubripes; pETM33 vector; Construct limits are in supplementary Spreadsheet S5; also called MDM2 T. rubripes; source: E. coli BL21 (DE3), purified (glutathione agarose, PreScission cleavage, Nickel Sepharose flow-through, SEC); not shown: His6, N-terminal, cleaved; GST, N-terminal, cleaved

In test [2] the target is B3.
The target in a further test is T2, p53TAD_(H.sapiens)^15–27 (Homo sapiens (human), N-terminal acetylated).
T2 construct: also called p53TAD_(human)^15–27; Homo sapiens (human) p53TAD^15–27; source: bought: GeneCust (France), peptide

B1: Takifugu rubripes (Japanese puffer) p53TADP1 p53TAD^full-length (domain or fragment)
chain: MTLNEMTSSSMFLCRSSSDLPAHHRGRMEDEGFSLPLSQDTFQDLWENVAAPSIVTIPTTSLENEQWHQELLMNYPELPFNEELFNLPSEMASKDSANLSTPTVPV
As usually defined, the Kd is the equilibrium constant for the complex coming apart. As for B1, in test [1], the dissociation constant (Kd) is 470 ± 30 nM.

B2: Danio rerio (zebrafish) p53TADP2 p53TAD^15–27 (peptide)
peptide: Ac-SQEFAELWEKNL
notes: numbers count on: human p53TAD; also called p53TAD^15–27_(D.rerio); source: bought: GeneCust (France), peptide
Consider B2, for which the Kd in test [2] is 3600 ± 300 nM.

B3: the Kd with p53TAD_(H.sapiens)^15–27 is 790 ± 50 nM.
